Results as given in patent US20150104459A1 (published 2015).

B1: TCN-545 (5082_I15) (antibody, V domains shown)
VH: QVQLQQWGAGLLKPSETLSLSCAVFGGSFSDYYWTWIRQPPGKGLEWIGEIKHSGRTNYNPSLESRVTISVDTSKNQFSLKLSSVTAADTAIYYCARGTDPDTEGYCRSGSCSAFDFWGQGTLVTVSS
VL: EIVLTQSPGTLSLSPGERATLSCRASHFVNYRSLAWYQQTPGQVPRLLIYGASTRATGIPDRFSGSGSGTDFTLTISRLEPEDFAVYFCQQYGGSPRYTFGQGTRLEIK
B2: TCN-539 (5056_A08) (antibody, V domains shown)
VH: QVQLVESGGGVVQPGRSLRLSCAASEITFITYAMHWVRQAPGKGLEWVALISDDGSNKFYADSVKGRFTISRDNSKNTLYLQMNSLRAEDTAAYYCAREGVYFDSGTYRGYFDYWGQETLVTVSS
VL: EIVLTQSPATLSLSPGERATLSCRASQSVSSYLAWYQQKPGQAPRLLIYDASNRATGIPARFSGSGSGTDFTLTISSLEPEDFAVYYCQQRSHWPPITFGQGTRLEIK
B3: TCN-526 (5084_C17) (antibody, V domains shown)
VH: EVLMVESGGGLVQPGGSVRLSCVASGFSFSSHWMTWVRQAPGKGLEWVANIEDDGGDKYYVDSVKGRFIISRDNAKNSVYLQMNSLRAEDTAVYFCARGSGSSDRSDYDPHYYYYLDVWGKGATVTVSS
VL: DIQLTQSPSSLSASVGDRVTITCRASQSISRYLNWYQQKPGKAPKLLLFAASTLLDGVPSRFSGSGSGTDFTLTISSLQPEDFATYYCQRNHSPSWTFGQGTRVEIK
B4: TCN-536 (5095_N01) (antibody, V domains shown)
VH: QVQLQQWGAGLLKPSETLSLTCAVYGGSFSVSGYYWSWIRQPPGRGLEWIGEISHGGSTNYNPSLKSRVTISVDTTKNQFSLRLSSVTAADTAVYYCARGTDPDTEVYCRVGNCAAFDYWGQGSLVTVSS
VL: EIILAQSPGTLSLSPGERATLSCRASQFVSTRSLAWYQQRPGQAPRLLIYGASSRATGIPDRFSGSGSGTDFTLTISRLEPEDFAVYYCQHYGYSPRYAFGQGSKVEIK
B5: TCN-532 (5262_H18) (antibody, V domains shown)
VH: QVQLQESGPGLVKPSETLSLTCTVSGGSVSSETYYWSWIRQPPGKGLEWIGYIYYIGNTDYRPSLKSRVTISLDTSKNQFSLKLSSVTAADTAVYYCARGAYYDSSGYPAFYIWGQGTMVTVSS
VL: QSVLTQPPSVSGAPGQRVTISCTGSSSNIGSDYDVHWYKQLPGTAPKLLIFGNSNRPSGVPDRFSGSKSGTSASLAITGLQAEDEADYYCQSYDSSLSGFHVFGSGTKVTVL
B6: TCN-534 (5249_B02) (antibody, V domains shown)
VH: QVQLVQSGAEVKKPGSSVKVSCRESGGTFNGYTITWVRQAPGQGLEWMGGIIPMMGTVNYAQKLQGRVTITTDYFTKTAYMDLNNLRSEDTAMYYCVKIRYTGQQLLWGQGTLVTVSS
VL: DIQMTQSPSTLSASIGDRVTITCRASQSIASWLAWYQQKPGKAPKLLIYEAVNLESGVPSRFSGSGSGTDFTLTISSLQPDDFATYFCQHYGTISQTFGGGTKVEIK
B7: TCN-529 (5297_H01) (antibody, V domains shown)
VH: QITLRESGPTLVKPTQTLTLTCTFSGFSLSTNGVNVGWIRQPPGKALEWLALIYWDDDKRYSPSLKRRLTITKDTSKNQVVLTLTNMDPVDTATYYCAHRPDFYGDFEYWGPGTLVTVSS
VL: QSALTQPASVSGSPGQSITISCTGSSSDIGGYNYVSWYQQHPGKAPKLMIYDVNNRPSGVSNRFSGSKSGNTASLTISGLQTDDEADYYCGSYTGSPHYVFGTGTKVTVL
B8: TCN-544 (5082_A19) (antibody, V domains shown)
VH: QVQLQESGPGLVKPSETLSLTCTVSRGSIGHYFWSWIRQPPGKGLEWIGYISYSGSTKYNPSLRSRVTISVDTSKNQFSLNLNSVTATDTALYYCAREDYDILTGAGPGMEVWGQGTTVTVSS
VL: QSMLTQPPSASGTPGQRVTISCSGSSSNIGSNTVNWFKHLPGTAPKLLIYRNDLRPSGVPDRFSGSKSGTSASLAISGLQSEDEADYYCATWDDSLNGFYVFGTGTKVTVL
B9: TCN-542 (5079_A16) (antibody, V domains shown)
VH: QVQLQESGPGLVKPSQTLSLTCTVSGGSISSGNYYWNWVRQHPGKGLEWIGYIYYRGSTFYNPSLKSRVTISIDTSKNQFSLRLSSVTAADTAVYYCAKDTRSSLDNYQYGMDVWGQGTTVTVSS
VL: QTVVTQEPSLTVSPGGTVTLTCASSTGAVTSSYFPNWFQQKPGQAPRPLIYSTTIRHSWTPARFSGSLLGGKAALTLSGVQPEDEADYYCLLYSGGDPVAFGGGTKLTVL
B10: TCN-537 (3194_D21) (antibody, V domains shown)
VH: QVQLQQWGSGLLKPSETLSLTCAVYGGSFRDDYWTWIRQPPGKGLEWIGEINHSGRTNYNPSLKSRVTISVDTSLKQFSLKVISVTAADTAVYYCARGTSHVSRYFDWLPPTNWFDPWGQGTQVTVSS
VL: DIVLTQSPGTLSLSPGERATLSCRASQSVSSSYLAWYQQKPGQAPRLVMYGAATRATGIPDRFSGSGSGPDFTLTISRLEPEDFAMYYCQQYGNSPITFGQGTRLEIK
B11: TCN-546 (5089_L08) (antibody, V domains shown)
VH: QVQLQQWGAGLLKPSETLSLTCGVYGGSLSDYYWSWIRQPPGKGLEWIGEINHSGGTNYNPSLKRRVTISVDTSKKQFSLKMNSVTAADTAVYYCARGTDPDTEVYCRAGNCAAFDFWGQGTLVTVSS
VL: EIVLTQSPGTLSLSPGERATLSCRASHFVIGRAVAWYQQKPGQAPRLLIYGASSRATGIPDRFSGSGSGTDFTLTISRLETEDFAVFYCQHYGSSPRYAFGQGTKLEIK
B12: TCN-533 (5256_A17) (antibody, V domains shown)
VH: QVQLVQSGADVKKPGSSVTVSCKASGGSFSNYGINWVRQAPGQGLEWMGGIIPLINAPNYAPKFQGRVTITADMFSNIVSLQLTSLRTDDTAVYYCARRKMTTAIDYWGQGTLVTVSS
VL: QPVLSQPPSASASLGASVTLTCTLSSGFDNYQVAWYQQRPGKGPRFVMRVGNGGNVASKGDGIPDRFSVSGSGLNRYLTIKNIQEDDESDYYCGADHGSGNNFVSPYVFGGGTKLTVL
B13: TCN-540 (5060_F05) (antibody, V domains shown)
VH: QVQLVQSGGGVVQPGRSLRLSCAASGFTFSSYAMHWVRQAPGKGLEWVAIISYDGNDQYYTDSVKGRFTISRDSSKVYLQMHRLRPEDTAVYYCAKEFETSGYFHGSFDYWGQGILVTVSS
VL: QSALTQPASVSGSPGQSITISCTGTSSDVGGYNYVSWYQQHPGKAPKLLIYEVTNWPSGVSNRFSGSKSGNTASLTISGLQAEDEADYYCSSYAGSSTWVFGGGTRVTVL
B14: TCN-522 (3212_I12) (antibody, V domains shown)
VH: QVQLQQWGAGLLKPSETLSLTCTVSGGSLTDYSWNWIRQPPGKGLEWIGDTLHNGYTNYNPSLRGRVSISIDTSKNQVSLRLTSVTAADTALYYCARGSGGYGGFDYFGKLRTWDFWGQGTLVTVSS
VL: DIQLTQSPSSLSASVGDRVTITCRASQGIRNDLGWYQQKPGNAPKRLIFGASSLQSGVPSRFSGSGSGTEFTLTISSLQPEDFATYYCLQHNSYPYTFGQGTKLEIK
B15: TCN-528 (5087_P17) (antibody, V domains shown)
VH: QVQLVQSGSEVKKPGASVKVSCKASGYTFTNYDINWIRQAPGQGLEWMGWINPNSGTTGSAQRFQGRVTITVDTSITTVYMELSSLRSDDTAIYYCARGRELLRLQHFLTDSQSERRDCFDPWGQGTLVTVSS
VL: DIQMTQSPSSLSASVGDRVTITCRANQDIGIYLNWYQQNPGKVPKLLLHGASSLQGGVPSRFSASGSGTDFTLTIHSLQPEDLATYYCQQSRRLPYTFGQGTRVELK
B16: TCN-530 (5248_H10a) (antibody, V domains shown)
VH: QVQLVQSGAEVRKPGSSVKVSCKASGGPFMSYAIGWVRQAPGQGLEWMGGINPVFGRPHYAQKFQGRVTIATDDSTKTSYMELSSLTSEDTGMYYCASRYSRSSPGTFESWGQGTLVTVSS
VL: EIVMTQFPATLSVSPGERVTLSCRASQSVSNNLAWYQQKPGQPPRLLIYDASTRATGVPAKFSGTGSGTEFTLSISSLQSEDFAVYYCQQYHNWPPSYSFGLGTKLEIK
B17: TCN-531 (5091_H13) (antibody, V domains shown)
VH: EVQLVESGGDLVQPGRSLKLSCTGSGFTFGDYGVTWVRQAPGKGLEWVGFIRTRPWGGTADTAASVKGRFTISRDDSKSLAYLQMNSLKTEDTAVYYCCRDAPPNVEVASMTNWYFDLWGRGTLVTVSS
VL: DIQLTQSPSSLSASVGDRVTITCRASQGILNCLAWYQQKPGKVPNLLMYAASTLQSGVPSRFSGSGFGTDFTLTISSLQPEDVATYYCQTYGGVSTFGGGTKVEIR
B18: TCN-527 (5086_C06) (antibody, V domains shown)
VH: QVQLQESGPGLVKPSETLSLNCAVSGGSISNYYWSWIRQPPGKGLEWIGYISYNGRPKYNPSLTSRVTISVDTSKDQFSLELRSVTAADTALYYCARETRFGELLSPYDAFEIWGQGTMVTVSS
VL: DIQMTQSPSSLSASVGDRVTMTCRASQNIRSYLNWYQQRPGTAPKLLIYAASTLHSGVPSRFSGGGSGTDFTLTINNLQPEDFASYYCQQSYDNPQTFGQGTKVEIK
B19: TCN-543 (5081_G23) (antibody, V domains shown)
VH: QVHLVQSGAEVRKPGDSVKVSCKTSGYTFSTYPVAWVRQVPGQGLEWMGWISTYNGNTNFAQNFQGRVTLTTDTTTNTAYMEVRSLKFDDTAVYYCARVEGSYRDFWNNQNRFDPWGQGTLVTVSS
VL: SYVLTQPPSVSVAPGQTARISCGGSNIGGKSVHWYQQKPGQAPVLVVYDDSGRPSGIPERFSGSNSGDTATLTISRVEAGDEADYFCQVWDNFGGVFGTGTKVTVL
B20: TCN-535 (5246_P19) (antibody, V domains shown)
VH: QVQLVQSGSEVKKPGTSVKVSCTASGSVFTNYGISWVRQAPGQGLEWMGGIIPLFGAAKYAQKFQGRVTITADESTKTVYMELSRLTSKDTAIYFCAKAPRVYEYYFDQWGQGTPVTVSS
VL: EIVLTQSPGTLSLSPGERATLSCRASQSVSSSQLAWYQQKPGQAPRLIIYGASTRATGIPDRFSGSGSGTDFTLTIGRLEPEDFAVFFCQQYSTSPPTFGQGTKVDFK
B21: TCN-538 (3206_O17) (antibody, V domains shown)
VH: QITLKESGPTLVKPTQTLTLTCVFSGFSLSITGVRVGWIRQPPGKALEWLALISWDDEKHYSPSLQSRLTITKDTSKNQVVLTMTNLDPVDTATYYCARSTDRGHVLRYFGWMLPGDAFDVWGQGTMVTVSS
VL: DIVMTQSPDFLPVSLGERATINCKSSQRVLYSSNNKNYLAWYQLKPGQPPKLIIYWASTRESGVPDRFSGSGSGTEFTLTISSLQAEDVAVYYCQQYYSRPYTFGQGTKLEIK

molecular target: Hemagglutinin of influenza A/Solomon Islands/3/06 (H1N1) on whole virions (Influenza A virus A/Solomon …); experiment: cell-based or functional assay

Binder | % Neutralization
B1 | 98%
B2 | 97%
B3 | 0%
B4 | 75%
B5 | 11%
B6 | 86%
B7 | 0%
B8 | 95%
B9 | 98%
B10 | 89%
B11 | 0%
B12 | 56%
B13 | 100%
B14 | 33%
B15 | 0%
B16 | 64%
B17 | 65%
B18 | 12%
B19 | 100%
B20 | 82%
B21 | 35%
